Molecular target: T1, B19 protein of chorioallantois vaccinia virus Ankara (CVA) (Vaccinia virus, strain Ankara (CVA), UniProt P23998 20-351)
T1 construct: also called orthopoxviral B19 protein
Assay: statement in Example 3; no assay described for IFN-β

B1: murine IFN-beta (ligand)
chain: INYKQLQLQERTNIRKCQELLEQLNGKINLTYRADFKIPMEMTEKMQKSYTAFAIQEMLQNVFLVFRNNFSSTGWNETIVVRLLDELHQQTVFLKTVLEEKQEERLTWEMSSTALHLKSYYWRVQRYLKLMKYNSYAWMVVRAEIFRNFLIIRRLTRNFQN
notes: also called IFN-β; murine IFN-β
Does B1 bind?
Result: no binding
